Data: patent US20150299296A1 (Chugai, published 2015)
Changes are numbered by the printed parent chain.

B1: IL6R-BP087/IL6R-L (antibody, human IgG1, kappa, name in EU numbering)
heavy: QVQLQESGPGLVKPSETLSLTCAVSGHSISHDHAWSWVRQPPGEGLEWIGFISYSGITNYNPSLQGRVTISRDNSKNTLYLQMNSLRAEDTAVYYCARSLARTTAMDYWGEGTLVTVSSASTKGPSVFPLAPSSKSTSGGTAALGCLVKDYFPEPVTVSWNSGALTSGVHTFPAVLQSSGLYSLSSVVTVPSSSLGTQTYICNVNHKPSNTKVDKKVEPKSCDKTHTCPPCPAPEYLGGDSVFLFPPKPKDTLMISRTPEVTCVVVDVSHEDPEVKFNWYVDGVEVHNAKTKPREEQYNSTYRVVSVLTVLHQDWLNGKEYKCKVSNKALPKPIEKTISKAKGQPREPQVYTLPPSRDELTKNQVSLTCLVKGFYPSDIAVEWESNGQPENNYKTTPPVLDSDGSFFLYSKLTVDKSRWQQGNVFSCSVMHEALHNHYTQESLSLSP
light: not shown
B2: IL6R-BP088/IL6R-L (antibody, human IgG1, kappa, name in EU numbering)
heavy: B1 heavy with Y236L, G239D, K328A
light: not shown
B3: IL6R-BP089/IL6R-L (antibody, human IgG1, kappa, name in EU numbering)
heavy: B1 heavy with K328A
light: not shown
B4: IL6R-BP129/IL6R-L (antibody, human IgG1, kappa, name in EU numbering)
heavy: B1 heavy with E235D, Y236L, Y298D
light: not shown
B5: IL6R-BP133/IL6R-L (antibody, human IgG1, kappa, name in EU numbering)
heavy: B1 heavy with E235D
light: not shown
B6: IL6R-BP143/IL6R-L (antibody, human IgG1, kappa, name in EU numbering)
heavy: B1 heavy with K328A, K332A
light: not shown
B7: IL6R-BP144/IL6R-L (antibody, human IgG1, kappa, name in EU numbering)
heavy: B1 heavy with Y236L, G239D, K328A, K332A
light: not shown
B8: IL6R-BP145/IL6R-L (antibody, human IgG1, kappa, name in EU numbering)
heavy: B1 heavy with G239D, K332A
light: not shown
B9: IL6R-BP147/IL6R-L (antibody, human IgG1, kappa, name in EU numbering)
heavy: B1 heavy with G239D, K328A
light: not shown
B10: IL6R-BP148/IL6R-L (antibody, human IgG1, kappa, name in EU numbering)
heavy: B1 heavy with E235D, G239D, K328A
light: not shown
B11: IL6R-BP149/IL6R-L (antibody, human IgG1, kappa, name in EU numbering)
heavy: B1 heavy with E235D, G239D, Y298D, K328A
light: not shown
notes: Same printed alterations as IL6R-BP214
B12: IL6R-BP150/IL6R-L (antibody, human IgG1, kappa, name in EU numbering)
heavy: B1 heavy with G239D, K328A, K332R
light: not shown
B13: IL6R-BP177/IL6R-L (antibody, human IgG1, kappa, name in EU numbering)
heavy: B1 heavy with E235D, G239D, P273G, K328D
light: not shown
B14: IL6R-BP179/IL6R-L (antibody, human IgG1, kappa, name in EU numbering)
heavy: B1 heavy with Y236L, G239D, P273G, K328A
light: not shown
B15: IL6R-BP180/IL6R-L (antibody, human IgG1, kappa, name in EU numbering)
heavy: B1 heavy with Y236L, G239D, P273G
light: not shown
B16: IL6R-BP183/IL6R-L (antibody, human IgG1, kappa, name in EU numbering)
heavy: B1 heavy with E235D, P273G, K328A
light: not shown
B17: IL6R-BP184/IL6R-L (antibody, human IgG1, kappa, name in EU numbering)
heavy: B1 heavy with E235D, Y236L, P273G
light: not shown
B18: IL6R-BP185/IL6R-L (antibody, human IgG1, kappa, name in EU numbering)
heavy: B1 heavy with E235D, G239D, P273G, K328A
light: not shown
B19: IL6R-BP186/IL6R-L (antibody, human IgG1, kappa, name in EU numbering)
heavy: B1 heavy with E235D, G239D, P273G, Y298D, K328A
light: not shown
B20: IL6R-BP187/IL6R-L (antibody, human IgG1, kappa, name in EU numbering)
heavy: B1 heavy with P273G, K328A
light: not shown
B21: IL6R-BP189/IL6R-L (antibody, human IgG1, kappa, name in EU numbering)
heavy: B1 heavy with Y236L, G239D, H270D, P273G, K328A
light: not shown
B22: IL6R-BP192/IL6R-L (antibody, human IgG1, kappa, name in EU numbering)
heavy: B1 heavy with E235D, Y236L, H270D, P273G, Y298D
light: not shown
B23: IL6R-BP194/IL6R-L (antibody, human IgG1, kappa, name in EU numbering)
heavy: B1 heavy with E235D, G239D, H270D, P273G, K328A
light: not shown
B24: IL6R-BP196/IL6R-L (antibody, human IgG1, kappa, name in EU numbering)
heavy: B1 heavy with H270D, P273G, K328A
light: not shown
B25: IL6R-BP198/IL6R-L (antibody, human IgG1, kappa, name in EU numbering)
heavy: B1 heavy with E235D, H270D, P273G, K328A
light: not shown

Key:
Experiment in all cases: SPR; IL6R-BF648/IL6R-L=100
[1] = biological target: T1, human FcγRIIb extracellular domain with C-terminal His tag (human, UniProt P31994 43-217)
T1 construct: extracellular domain; For crystals it was expressed with kifunensine and trimmed with Endo F1; also called FcgRIIb; FcγRIIb extracellular region
T1 sequence (looked up): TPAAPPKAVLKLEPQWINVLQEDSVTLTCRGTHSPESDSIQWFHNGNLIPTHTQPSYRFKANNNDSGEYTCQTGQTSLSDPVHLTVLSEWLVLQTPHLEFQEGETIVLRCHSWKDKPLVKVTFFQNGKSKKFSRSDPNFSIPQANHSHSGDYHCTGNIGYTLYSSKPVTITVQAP

[2] = biological target: T2, human FcγRIIIa type V extracellular domain with C-terminal His tag (human, UniProt P08637 17-208)
T2 construct: extracellular domain; also called FcgRIIIaV; FcγRIIIaV
T2 sequence (P08637 17-208 F176V): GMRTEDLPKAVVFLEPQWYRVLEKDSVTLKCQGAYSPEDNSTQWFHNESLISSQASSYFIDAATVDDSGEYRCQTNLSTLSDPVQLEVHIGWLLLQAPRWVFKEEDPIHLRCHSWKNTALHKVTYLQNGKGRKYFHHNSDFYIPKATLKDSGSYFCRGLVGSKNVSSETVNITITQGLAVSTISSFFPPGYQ

[3] = biological target: T3, human FcγRIIa type H extracellular domain with C-terminal His tag (human, UniProt P12318 34-217)
T3 construct: extracellular domain; also called FcgRIIaH; FcγRIIa H
T3 sequence (looked up): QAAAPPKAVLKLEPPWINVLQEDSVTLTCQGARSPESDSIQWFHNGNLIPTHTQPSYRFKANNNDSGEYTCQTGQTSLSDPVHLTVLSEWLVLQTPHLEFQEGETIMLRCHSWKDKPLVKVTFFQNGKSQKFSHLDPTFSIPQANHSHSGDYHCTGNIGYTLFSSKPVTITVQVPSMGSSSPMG

[4] = biological target: T4, human FcγRIa extracellular domain with C-terminal His tag (human, UniProt P12314 16-292)
T4 construct: Whole entry named; also called FcgRIa; FcgIa
T4 sequence (P12314 16-292): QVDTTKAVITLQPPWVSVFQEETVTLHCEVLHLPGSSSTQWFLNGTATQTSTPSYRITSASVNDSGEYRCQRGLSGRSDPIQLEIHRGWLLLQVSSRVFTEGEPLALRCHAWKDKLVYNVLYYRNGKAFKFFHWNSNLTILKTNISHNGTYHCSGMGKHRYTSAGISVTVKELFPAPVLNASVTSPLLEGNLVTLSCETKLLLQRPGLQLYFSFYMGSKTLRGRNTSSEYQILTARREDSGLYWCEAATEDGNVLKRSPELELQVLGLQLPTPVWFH

Binder | relative binding activity [1] | relative binding activity [2] | relative binding activity [3] | relative binding activity [4]
B1 | 137 | 158 | 179 | 33
B2 | 161 | 122 | 166 | 25
B3 | 147 | 136 | 186 | 43
B4 | 138 | 95 | 98 | 68
B5 | 137 | 114 | 151 | 41
B6 | 133 | 114 | 143 | 86
B7 | 121 | 128 | 108 | 64
B8 | 152 | 153 | 224 | 41
B9 | 177 | 209 | 582 | 24
B10 | 176 | 227 | 462 | 33
B11 | 173 | 186 | 401 | 29
B12 | 183 | 204 | 770 | 30
B13 | 177 | 186 | 409 | 57
B14 | 177 | 125 | 226 | 39
B15 | 179 | 100 | 203 | 29
B16 | 164 | 113 | 191 | 83
B17 | 171 | 106 | 131 | 96
B18 | 179 | 191 | 446 | 47
B19 | 175 | 143 | 368 | 43
B20 | 157 | 124 | 205 | 68
B21 | 177 | 141 | 183 | 56
B22 | 172 | 118 | 122 | 109
B23 | 178 | 249 | 395 | 69
B24 | 157 | 137 | 195 | 89
B25 | 164 | 157 | 188 | 104
